Data on two substances can be found in PMC5564421.

Where two headings read alike, the source gives them in different places.

Assay [1] deals with Cytc from equine heart (equine) (UniProt P00004). Description: SEC. On the technique in general: Size exclusion chromatography separates by hydrodynamic size, large species first.
Assay [2] has the same target. Description: SEC. This is another data set of the same source.
For assay [3], the target named is WT* iso-1-Cytc (K72A variant of yeast iso-1-cytochrome c, with C102S) (yeast). Description: SEC.
For assay [4] the target is unchanged. The assay is described as follows: crystal structure.
The target is the same in assay [5]. The assay is described as follows: SEC. The source holds these as a separate data set.
The target is the same in assay [6]. The assay is described as follows: SEC. The source holds these as a separate data set.
Assay [7] shares this target. The assay is described as follows: SEC. This is another data set of the same source.
For assay [8] the target is unchanged. The assay is described as follows: SEC. This is another data set of the same source.

Sequence of Cytc from equine heart, P00004 1-105 (natural protein; other documents disagree on this pair) (P00004 whole entry): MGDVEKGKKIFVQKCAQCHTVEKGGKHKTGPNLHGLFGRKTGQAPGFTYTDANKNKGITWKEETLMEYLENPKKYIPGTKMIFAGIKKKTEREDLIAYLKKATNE

The term koff denotes a measure of how fast the partners let go of each other. A high value points to fast dissociation. In assay [1], “Cytc from equine heart, P00004 1-105 (natural protein; other documents disagree on this pair)” came in with an off-rate constant (koff) of 1.6e-06 s⁻¹. In addition, in assay [2], the koff was found to be 1.5e-05 s⁻¹ and the lifetime of the dimer came to 7.4 days.

A word on the stoichiometry N: it is a count of units in the complex or per binding partner. Regarding “WT* iso-1-Cytc (K72A variant of yeast iso-1-cytochrome c, with C102S) (natural protein)”, the dissociation rate constant (koff) in assay [3] is 0.0034 s⁻¹; in assay [5], 6.5e-06 s⁻¹; in assay [6], 1.6e-05 s⁻¹; in assay [7], 6.1e-05 s⁻¹; in assay [8] it was 0.00055 s⁻¹. For the same substance, the stoichiometry N in assay [4] turned out to be 2.
